Assay results from paper PMC10853763.

Tested on: TifA RB69 (phage RB69)
Test: fluorescence polarization
Settings: FP: 50 mM Tris-HCl pH 7.5, 150 mM NaCl, 1 mM DTT, 5% glycerol, 0.1 mg/ml BSA, 5 nM nucleic acid, 30 min at 37 C, SEC: 20 mM Tris-HCl pH 8.5, 50 mM NaCl

| Substance | Kd [nM] |
| --- | --- |
| artJ RNA 15 nt | 2300 |
| artJ RNA 30 nt | 850 |
| artJ RNA 45 nt | 360 |
